Legend:
[1] = parameters: method as in 19 sources, ref 24; PMID 3290255; doi:10.1172/JCI113527; 24. Lehrer R.I. Ganz T. Szklarek D. Selsted M.E. Modulation of the in vitro candidacidal activity of human neutrophil defensins by target cell metabolism and divalent cations J. Clin. Invest. 1988 81 || [47]; PMID 11083633; doi:10.1128/AAC.44.12.3310-3316.2000; 47. Edgerton M. Koshlukova S.E. Araujo M.W. Patel R.C. Dong J. Bruenn J.A. Salivary histatin 5 and human neutrophil defensin 1 kill Candida albicans via shared pathways Antimicrob. Agents Chemother. 2 ||| ref 20 = [20]; PMID 17074797; doi:10.1128/AAC.00478-06; 20. Vylkova S. Nayyar N. Li W. Edgerton M. Human beta-defensins kill Candida albicans in an energy-dependent and salt-sensitive manner without causing membrane disruption Antimicrob. Agents Chemother. ||| ref 24, 62 (HNP-1); 62, 63 (HNP-4); 20 (hBD-2); 12, 20 (hBD-3); 34, 35, 64 cidal and 65, 66 static (lactoferrin) ||| ref 26 (HNP-1); 12 (HNP-4); 11 (hBD-2, hBD-3); 43, 67 (lactoferrin) ||| ref 14 (HNP-1); 23 (HNP-4); Yes 11, 13 / No 20 (hBD-2); No 20 / Yes 11 (hBD-3); 31, 34, 42 (lactoferrin) ||| ...; details: Table 2, cited from earlier work
C. albicans cells [2] = experiment: Oxygen consumption measurement (polarographic), C. albicans; type: cell-based, Candida albicans; details: after 30 min; defensins 2 x NPIC, human lactoferrin 20 μM, piericidin A 32 µM; preincubated 15 min at 37 °C; untreated cells 94% ± 2%; means ± SD, three experiments
Description: Oxygen consumption by C. albicans and P. aeruginosa cells was determined by polarographically using a biological oxygen monitor (dual digital-model 20; Rank Brothers Ltd., Cambridge, UK) at 25 °C. The apparatus consisted of a twin water-jacketed closed sample chamber, which enabled a control experiment to be conducted concurrently. The cells were grown to mid-log phase in SDB (C. albicans) or TSB (P. aeruginosa), washed twice in Tris buffer, and resuspended in the same buffer. Cell suspensions (approximately 10^7 cells/mL) were preincubated with defensins (2 x NPIC), human lactoferrin (20 μM), or piericidin A (32 μM) for 15 min at 37 °C. Oxygen consumption was recorded at 5-min intervals for a period of 30 min. Three independent experiments were performed, and the data are means ± SD.

Pma1p H^+-ATPase = details: Table 2; no reference given
Description: A whole-cell proton transport assay was used to evaluate the possible inhibition of the fungal Pma1p H^+-ATPase by defensins.
To measure proton pumping from Pma1p H^+-ATPase activity, a glucose-induced acid extrusion assay was performed as previously described with modifications. Briefly, cultures of C. albicans cells were grown to mid-log phase in SDB medium and washed twice in 100 mM Tris-HCl (pH 8.0). The cells were then resuspended in 50 mM KCl and maintained for 18 h at 4 °C to reduce metabolic activity to a minimum (starvation conditions). To determine external acidification, starved cells (approximately 10^7 cells/mL) were incubated for 15 min at 37 °C in the presence or absence of the defensins (2 x NPIC). Cells incubated with 20 µM human lactoferrin or 0.5 µM BM2 peptide were used as positive controls. The initial pH of the cell suspension was adjusted to approximately pH 6.8 with HCl, and glucose (final concentration of 2.5 mM) was immediately added to the cell suspension. The pH of the medium was recorded at 5-min intervals for 20 min using a SevenMulti S50-K pH meter (Mettler-Toledo, Greifensee, Switzerland) with a calibrated electrode (InLab 413, Mettler-Toledo) under constant stirring. Each experiment was repeated three times in an independent manner.

C. albicans cells [3] = experiment: Total cellular ATP (BacTiter-Glo); type: cell-based, Candida albicans; details: defensins at NPIC, human lactoferrin 5 μM, BM2 peptide 0.25 μM; 10^6 cells/mL; BacTiter-Glo luminescence
Description: Total ATP was measured using the BacTiter-Glo^TM Microbial Cell Viability Assay (Promega Co., Madison, WI, USA) according to the manufacturer’s instructions. […] Aliquots (100 µL) were incubated (90 min at 37 °C) with human defensins (NPICs). Human lactoferrin (5 μM) or BM2 peptide (0.25 μM) was used as positive controls. One hundred microliters of the incubation mixture was transferred to an opaque 96-well plate, mixed with an equal volume of BacTiter-Glo^TM reagent, and incubated for 15 min in the dark. The reagent uses a thermostable luciferase to generate luminescence in an ATP-dependent manner. The emitted luminescence was detected using a Varioskan Flash multimode reader (Thermo Scientific, Waltham, MA, USA) with a 10 s shaking and 1 s integration time. A calibration curve was generated for each experiment with ATP standards ranging from 1 to 1000 nM. All assays were performed at least three times in duplicate.

C. albicans cells [4] = experiment: Membrane potential monitoring with DiBAC4(3), flow cytometry; type: cell-based, Candida albicans; details: peptides at NPIC, hLf 5 μM, BM2 0.25 μM; DiBAC4(3) 1 µg/mL
Description: The membrane potential-sensitive probe DiBAC4(3) was used to monitor the transmembrane electrical potential of C. albicans cells as previously described with slight modifications. Briefly, cells were harvested from mid-log phase cultures via centrifugation and suspended in Tris buffer. The cell suspension was adjusted to 10^6 cells/mL and then incubated with DiBAC4(3) at a final concentration of 1 µg/mL for 30 min. Fluorescence was measured using a CytoFLEX S flow cytometer (Beckman Coulter) with excitation at 561 nm and emission at 690/50 nm. For each treatment, 5000 events were counted per experiment with an exposure time of 1000 ms. Results were analyzed using CytExpert 2.1 Acquisition software. As positive controls, human lactoferrin and BM2 peptide were used. Three independent experiments were performed and data are expressed as means ± SD.

B1: human lactoferrin: Recombinant human apo-lactoferrin (hLf), 691 amino acid γ-core protein that inhibits microbial PM H+-ATPases; control (protein, UniProt P02788 20-710, looked up)
Lactotransferrin: GRRRSVQWCAVSQPEATKCFQWQRNMRKVRGPPVSCIKRDSPIQCIQAIAENRADAVTLDGGFIYEAGLAPYKLRPVAAEVYGTERQPRTHYYAVAVVKKGGSFQLNELQGLKSCHTGLRRTAGWNVPIGTLRPFLNWTGPPEPIEAAVARFFSASCVPGADKGQFPNLCRLCAGTGENKCAFSSQEPYFSYSGAFKCLRDGAGDVAFIRESTVFEDLSDEAERDEYELLCPDNTRKPVDKFKDCHLARVPSHAVVARSVNGKEDAIWNLLRQAQEKFGKDKSPKFQLFGSPSGQKDLLFKDSAIGFSRVPPRIDSGLYLGSGYFTAIQNLRKSEEEVAARRARVVWCAVGEQELRKCNQWSGLSEGSVTCSSASTTEDCIALVLKGEADAMSLDGGYVYTAGKCGLVPVLAENYKSQQSSDPDPNCVDRPVEGYLAVAVVRRSDTSLTWNSVKGKKSCHTAVDRTAGWNIPMGLLFNQTGSCKFDEYFSQSCAPGSDPRSNLCALCIGDEQGENKCVPNSNERYYGYTGAFRCLAENAGDVAFVKDVTVLQNTDGNNNEAWAKDLKLADFALLCLDGKRKPVTEARSCHLAMAPNHAVVSRMDKVERLKQVLLHQQAKFGRNGSDCPDKFCLFQSETKNLLFNDNTECLARLHGKTTYEKYLGPQYVAGITNLKKCSTSPLLEACEFLRK
modifications: apo form
notes: control
In the case of B1, the “Cell death inhibitors, intracellular: Azide” value ([1]; 24 (HNP-1), 20 (hBD-2, hBD-3), 34 (lactoferrin)) is listed as “No”, the Antimicrobial range ([1]; Gm+ Gram-positive bacteria, Gm− Gram-negative bacteria, F fungi, V viruses, P protozoa, no reference given) is listed as “Gm +,Gm −,F,V,P” and the “Cell death inhibitors, extracellular: Tok1p inhibitors (TEA)” value [1] is listed as “Yes”. For the same molecule, the “Cell death inhibitors, intracellular: Oligomycin A” value [1] was “Yes”, the “Cell death inhibitors, intracellular: Piericidin A” value [1] was “Yes” and the “Partial K^+-efflux” value [1] was “Yes”. The Membrane permeabilization ([1]; ref 14 (HNP-1), 23 (HNP-4), Yes 11, 13 / No 20 (hBD-2), No 20 / Yes 11 (hBD-3), 31, 34, 42 (lactoferrin)) was “No”, the “Cell death inhibitors, extracellular: Ca^2+ or Mg^2+” value ([1]; ref 24 (HNP-1), 20 (hBD-2, hBD-3), 43 (lactoferrin)) was “Yes” and the “Cell death inhibitors, intracellular: CCCP or DNP” value ([1]; ref 24 (HNP-1), 34 (lactoferrin)) was “Yes”. For the same molecule, the “Cell death inhibitors, extracellular: Anoxia” value ([1]; ref 24 (HNP-1), 34, 35 (lactoferrin)) was “Yes”, the Membrane depolarization ([1]; ref 26 (HNP-1), 12 (HNP-4), 11 (hBD-2, hBD-3), 43, 67 (lactoferrin)) was “Yes” and the ATP increment ([1]; ref 47 (HNP-1), 35 (lactoferrin)) was “Yes”. For the same molecule, the “Cell death inhibitors, extracellular: K^+ or Na^+” value ([1]; ref 68 (HNP-1), 69 (HNP-4), 20 (hBD-2), No 11, 12 / Yes 20 (hBD-3), 31, 36, 43 (lactoferrin)) was “Yes”, the “oxygen consumption percentage of C. albicans” value (C. albicans cells [2]) was 90% ± 3% and the “Inhibition of H^+-extrusion (yeast)” value (Pma1p H^+-ATPase) was “Yes”. For the same molecule, the “increase in ATP levels compared to the untreated control” value (C. albicans cells [3]) was ~ 6 fold and the “transmembrane electrical potential (DiBAC4(3) fluorescence)” value (C. albicans cells [4]) was “increase in DiBAC4(3) fluorescence”.

From paper PMC11242853, “The Antimicrobial Activity of Human Defensins at Physiological Non-Permeabilizing Concentrations Is Caused by the Inhibition of the Plasma Membrane H^+-ATPases” (International Journal of Molecular Sciences, 2024)
